T1: mouse Roquin-1 (aa 2–441) (mouse, UniProt Q4VGL6 2-441)
T1 construct: mouse Roquin-1 aa 2-441; also called Roquin (aa 2–441)
T1 sequence (looked up): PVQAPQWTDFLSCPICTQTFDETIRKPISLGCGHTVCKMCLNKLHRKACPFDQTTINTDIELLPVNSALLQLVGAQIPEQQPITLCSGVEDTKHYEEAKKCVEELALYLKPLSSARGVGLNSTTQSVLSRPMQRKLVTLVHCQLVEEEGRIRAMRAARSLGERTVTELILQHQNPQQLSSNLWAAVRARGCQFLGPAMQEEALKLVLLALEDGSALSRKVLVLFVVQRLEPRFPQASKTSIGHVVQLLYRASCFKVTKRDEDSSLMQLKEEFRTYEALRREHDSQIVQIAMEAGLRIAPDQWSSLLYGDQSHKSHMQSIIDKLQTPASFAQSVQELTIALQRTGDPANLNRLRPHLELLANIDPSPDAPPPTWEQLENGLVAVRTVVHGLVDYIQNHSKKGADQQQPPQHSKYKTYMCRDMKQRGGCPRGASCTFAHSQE

B1: human NUFIP2 (aa 255–411) (domain or fragment, UniProt Q7Z417 255-411, looked up)
chain: KQGLETFKPDYSEQKGNRVDGSKPIWKYETGPGGTSRGKPAVGDMLRKSSDSKPGVSSKKFDDRPKGKHASAVASKEDSWTLFKPPPVFPVDNSSAKIVPKISYASKVKENLNKTIQNSSVSPTSSSSSSSSTGETQTQSSSRLSQVPMSALKSVTS
notes: His6-SUMO cleaved off by PreScission protease; source: E. coli BL21(DE3)pRIL, purified (HisTrap, ion exchange, Superdex 75); not shown: His6-SUMO, N-terminal, cleaved

Key:
[1] = target: T1, mouse Roquin-1 (aa 2–441); assay: SPR; BIACORE 3000; Roquin (aa 2–441) immobilised on CM5 chip by amine coupling; NUFIP2 (aa 255–411) injected at 0.063-4 μM, 30 μL/min, 20 °C; 150 mM NaCl, 0.05% Tween20, 10 mM HEPES; steady-state analysis; conditions: both partners purified
[2] = target: B1; assay: SPR; BIACORE 3000; Roquin (aa 2–441) immobilised; 4 μM NUFIP2 (aa 255–411) injected together with 0.016, 0.063, 0.25 or 1 μM FMRP (aa 1–132); 250 mM NaCl, 0.05% Tween20, 10 mM HEPES; conditions: both partners purified

Row | Kd [1] | binding result [2] | Binder
1 | 182 nM |  | B1
2 |  | binds | mouse Fmrp (aa 1–132) (domain or fragment, His6-GST cut off by PreScission protease; source: E. coli BL21Star(DE3), purified (HisTrap, GSTTrap, Superdex 75); not shown: His6-GST, N-terminal, cleaved) not shown
